Where no end group is shown, it is not given here.
T1: Fl-Cat^N (fluorescein labeled Cat^N peptide) (N-terminus capped with 5(6)-carboxyfluorescein)
T1 construct: Made by Fmoc solid phase synthesis; also called FI-Cat^N; Cat^N containing an N-terminal fluorescein
T1 peptide: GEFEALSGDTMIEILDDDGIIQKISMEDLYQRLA

B1: SUMO-Flag-Cat^C (other)
chain: MGSSHHHHHHGSGLVPRGSASMSDSEVNQEAKPEVKPEVKPETHINLKVSDGSSEIFFKIKKTTPLRRLMEAFAKRQGKEMDSLRFLYDGIRIQADQTPEDLDMEDNDIIEAHREQIGGDYKDDDDKMFKLNTKNIKVLTPSGFKSFSGIQKVYKPFYHHIIFDDGSEIKCSDNHSFGKDKIKASTIKVGDYLQGKKVLYNEIVEEGIYLYDLLNVGEDNLYYTNGIVSHACESRGK
notes: also called SUMO-Flag-Cats
B2: Cat^N (EFE-Cat^N, cleaved from SUMO-Cat^N) (peptide)
peptide: EFEALSGDTMIEILDDDGIIQKISMEDLYQRLA
modifications: also: 15N,13C isotope-labelled form used in NMR
notes: the range 120-152 (EFEALSG...QRLA) is counted by me from that statement; Isotope-labelled (15N, 13C) in NMR; also called 15N,13C Cat^N
B3: FLAG-Cat^C (cleaved from SUMO-Flag-Cat^C) (other)
chain: DYKDDDDKMFKLNTKNIKVLTPSGFKSFSGIQKVYKPFYHHIIFDDGSEIKCSDNHSFGKDKIKASTIKVGDYLQGKKVLYNEIVEEGIYLYDLLNVGEDNLYYTNGIVSHACESRGK
notes: also called 15N,13C FLAG-Cat^C

What was measured:
[1] = target: T1, Fl-Cat^N (fluorescein labeled Cat^N …); experiment: one site binding fit of steady-state fluorescence anisotropy, 500 pM Fl-Cat^N, 500 mM NaCl (fit value below the probe concentration)
[2] = target: T1, Fl-Cat^N (fluorescein labeled Cat^N …); experiment: kon1: slope of kobs1 against Cat^C concentration, stopped-flow fluorescence anisotropy, 100 mM NaCl
[3] = target: T1, Fl-Cat^N (fluorescein labeled Cat^N …); experiment: kon2: slope of kobs2 against Cat^C concentration, stopped-flow fluorescence anisotropy, 100 mM NaCl
[4] = target: T1, Fl-Cat^N (fluorescein labeled Cat^N …); experiment: steady-state fluorescence anisotropy, 500 pM Fl-Cat^N, both low (100 mM NaCl) and high (500 mM NaCl) salt
[5] = target: T1, Fl-Cat^N (fluorescein labeled Cat^N …); experiment: one site binding fit of steady-state fluorescence anisotropy, 500 pM Fl-Cat^N, 100 mM NaCl (fit value below the probe concentration)
[6] = target: T1, Fl-Cat^N (fluorescein labeled Cat^N …); experiment: kon1: slope of kobs1 against Cat^C concentration, stopped-flow fluorescence anisotropy, 500 mM NaCl
[7] = target: T1, Fl-Cat^N (fluorescein labeled Cat^N …); experiment: kon2: slope of kobs2 against Cat^C concentration, stopped-flow fluorescence anisotropy, 500 mM NaCl
[8] = target: B3; experiment: NMR: 1H-15N HSQC, heteronuclear NOE, spin-spin relaxation, Cα-Cβ chemical shift perturbation
[9] = target: B2; experiment: circular dichroism and analytical size exclusion chromatography of Cat^N, Cat^C and the complex

## B1
[1]
  Kd: 0.0804 nM
[2]
  kon: 2.8e+06 M⁻¹ s⁻¹
[3]
  kon: 160000 M⁻¹ s⁻¹
[4]
  Kd: < 0.5 nM
[5]
  Kd: 0.0339 nM
[6]
  kon: 2.34e+06 M⁻¹ s⁻¹
[7]
  kon: 180000 M⁻¹ s⁻¹

## B2
[8]
  binding result: binds

## B3
[9]
  binding result: binds

Source: patent publication US20220275027A1 (TRUSTEES OF PRINCETON UNIVERSITY, published 2022)
